Data from patent publication US20220175942A1.
Changes are numbered by the printed parent chain.

B1: P974_AMBCA, A0A023FDY8 22-118 (protein)
chain: ENTQQEEQDYDYGTDTCPFPVLANKTNKAKFVGCHQKCNGGDQKLTDGTACYVVERKVWDRMTPMLWYECPLGECKNGVCEDLRKKEDCRKGNGEEK
B2: P546_AMBCA, A0A023FBW7 22-118 (protein)
chain: B1 chain with Q8E, E69S, D88E

Tests used:
[1] = biological target: T1, CCL5_HUMAN (human), P13501; assay: BLI; details: other; chains chain; remark: other sources report otherwise
T1 chain: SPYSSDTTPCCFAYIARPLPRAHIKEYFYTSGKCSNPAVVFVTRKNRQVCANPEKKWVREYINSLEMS

[2] = biological target: T2, CCL19_HUMAN (human), Q99731; assay: microscale thermophoresis, AlexaFluor 647 labelled chemokine; details: remark: other sources report otherwise
T2 chain: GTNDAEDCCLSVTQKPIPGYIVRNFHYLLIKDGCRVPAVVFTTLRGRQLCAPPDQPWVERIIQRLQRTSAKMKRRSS

[3] = biological target: CCL20_HUMAN (human), P78556; assay: as above; details: remark: other sources report otherwise
Sequence of CCL20_HUMAN (human), P78556 (P78556 27-96 limits assumed): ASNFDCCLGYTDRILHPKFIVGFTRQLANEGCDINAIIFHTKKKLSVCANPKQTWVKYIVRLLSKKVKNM

[4] = biological target: CXCL8_HUMAN (human), P10145; assay: as above; details: remark: other sources report otherwise
Sequence of CXCL8_HUMAN (human), P10145 (P10145 28-99 limits assumed): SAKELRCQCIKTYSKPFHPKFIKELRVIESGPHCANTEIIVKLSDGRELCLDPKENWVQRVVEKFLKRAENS

[5] = biological target: T3, CX3CL1_HUMAN (human), P78423; assay: as above; details: remark: other sources report otherwise
T3 chain: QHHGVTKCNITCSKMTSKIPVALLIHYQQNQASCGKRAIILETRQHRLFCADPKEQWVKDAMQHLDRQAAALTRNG

[6] = biological target: CXCL12_HUMAN (human), P48061; assay: as above; details: remark: other sources report otherwise
Sequence of CXCL12_HUMAN (human), P48061 (P48061 22-89 limits assumed): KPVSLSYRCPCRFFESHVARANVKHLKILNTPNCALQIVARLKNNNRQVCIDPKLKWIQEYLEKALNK

[7] = biological target: CXCL10_HUMAN (human), P02778; assay: as above; details: remark: other sources report otherwise
Sequence of CXCL10_HUMAN (human), P02778 (P02778 22-98 limits assumed): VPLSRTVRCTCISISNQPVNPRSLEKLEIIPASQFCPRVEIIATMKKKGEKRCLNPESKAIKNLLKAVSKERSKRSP

[8] = biological target: T1, CCL5_HUMAN (human), P13501; assay: as above; details: remark: other sources report otherwise

Binder | Kd [1] [nM] | Kd [2] [nM] | Kd [3] [nM] | Kd [4] [nM] | Kd [5] [nM] | Kd [6] [nM] | Kd [7] [nM] | Kd [8] [nM]
B1 | 160 | – | – | – | – | – | – | –
B2 | – | 367 | 232 | 56 | 140 | 71 | 104 | 128
